These results are taken from patent US20240350586A1 (TSINGHUA UNIVERSITY, published 2024).

Where a chain is given by its changes, count along the chain named. In names and notes the source's numbering stands.

T1: His-mRuby2-CCT2 (purified) (human, UniProt P78371 2-535)
T1 construct: 4 uM added to FUS P525L granules in vitro; also called CCT2 protein; not shown: His tag and mRuby2
T1 sequence: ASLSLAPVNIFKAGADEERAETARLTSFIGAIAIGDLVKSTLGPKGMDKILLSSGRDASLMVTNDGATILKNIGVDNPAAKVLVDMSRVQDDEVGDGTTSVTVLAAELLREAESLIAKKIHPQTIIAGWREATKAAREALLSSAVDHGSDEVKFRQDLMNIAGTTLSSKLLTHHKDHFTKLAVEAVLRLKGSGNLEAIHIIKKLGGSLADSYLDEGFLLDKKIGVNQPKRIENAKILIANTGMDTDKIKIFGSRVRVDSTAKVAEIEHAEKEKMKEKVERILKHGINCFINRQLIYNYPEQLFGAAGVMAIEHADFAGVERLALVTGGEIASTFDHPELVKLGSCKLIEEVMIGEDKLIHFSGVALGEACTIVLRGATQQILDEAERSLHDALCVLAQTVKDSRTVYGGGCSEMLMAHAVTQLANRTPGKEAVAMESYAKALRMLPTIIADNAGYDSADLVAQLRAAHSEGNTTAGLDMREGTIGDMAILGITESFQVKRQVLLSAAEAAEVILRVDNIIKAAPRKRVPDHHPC

B1: HA-CCT2 (chaperonin subunit CCT2, wild type, N-terminal HA tag) (other)
chain: T1 sequence
notes: Expressed in HEK293T or U2OS from pFUGW-HA-CCT2; CCT genes were amplified from HEK293T cDNA; also called WT CCT2; HA-CCT2 WT; not shown: N-terminal HA tag
B2: HA-CCT2 mVIL (other)
chain: T1 sequence with V512A, I513A, L514A
notes: also called CCT2 VIL mutated to alanine; not shown: N-terminal HA tag
B3: HA-CCT2 mVLL (other)
chain: T1 sequence with V502A, L503A, L504A
notes: also called CCT2 VLL mutated to alanine; not shown: N-terminal HA tag
B4: GST-HA-CCT2 with VLL and VIL mutated (purified) (other)
chain: T1 sequence with V502A, L503A, L504A, V512A, I513A, L514A
notes: also called GST-CCT2s; CCT2 with mutation of VLL and VIL; not shown: N-terminal GST and HA tags
B5: T7-GABARAP (expressed in cells) (other, UniProt O95166 1-116, looked up)
chain: MKFVYKEEHPFEKRRSEGEKIRKKYPDRVPVIVEKAPKARIGDLDKKKYLVPSDLTVGQFYFLIRKRIHLRAEDALFFFVNNVIPPTSATMGQLYQEHHEEDFFLYIAYSDESVYG
notes: not shown: T7 tag
B6: GFP-FUS P525L (purified, after TEV digestion of MBP-TEV-GFP-FUS P525L) (other, UniProt P35637 1-526, looked up)
chain: MASNDYTQQATQSYGAYPTQPGQGYSQQSSQPYGQQSYSGYSQSTDTSGYGQSSYSSYGQSQNTGYGTQSTPQGYGSTGGYGSSQSSQSSYGQQSSYPGYGQQPAPSSTSGSYGSSSQSSSYGQPQSGSYSQQPSYGGQQQSYGQQQSYNPPQGYGQQNQYNSSSGGGGGGGGGGNYGQDQSSMSSGGGSGGGYGNQDQSGGGGSGGYGQQDRGGRGRGGSGGGGGGGGGGYNRSSGGYEPRGRGGGRGGRGGMGGSDRGGFNKFGGPRDQGSRHDSEQDNSDNNTIFVQGLGENVTIESVADYFKQIGIIKTNKKTGQPMINLYTDRETGKLKGEATVSFDDPPSAKAAIDWFDGKEFSGNPIKVSFATRRADFNRGGGNGRGGRGRGGPMGRGGYGGGGSGGGGRGGFPSGGGGGGGQQRAGDWKCPNPTCENMNFSWRNECNQCKAPKPDGPGGGPGGSHMGGNYGDDRRGGRGGYDRGGYRGRGGDRGGFRGGRGGGDRGGFGPGKMDSRGEHRQDRRERLY
notes: 2 uM protein, as liquid granules (phase separation) or as solid aggregates (shaken at 700 rpm); also called FUS P525L granules; not shown: GFP
B7: CCT2 domain3 peptide 7 mVL(I)L (peptide)
peptide: ILGITESFQVKRQAAASAAEAAEAAARVDN
notes: Synthetic peptide coupled to agarose beads; VLL and VIL replaced by alanines; also called peptide 7 mutant (mVL (I) L)

Experiment [1] has as its target T7-LC3B (UniProt Q9GZQ8 1-120). Nature of the experiment: co-IP of HA-CCT2 with T7-ATG8s in HEK293T. The text has this: The cells were permeabilized with digitonin before fixation. [0136] (G) Quantification of LC3 around Q103-HTT IB (mean±SEM) as shown in (F). […] [0137] […] The cells were permeabilized with digitonin before immunoblot analysis. LE, long exposure; SE, short exposure. [0138] (I) Quantification of normalized Q103-HTT (mean±SEM) in (H). […] [0139] […] The VLIR motif VIL is highlighted in red. [0140] […] The data are representative of three independent experiments. [0141] […] The cells were permeabilized with digitonin before fixation. [0142] (M) Quantification of LC3 around IBs (mean±SEM) as shown in (L). […] [0143] […] [0144] (O) Quantification of normalized Q103-HTT (mean±SEM) in (N).
Co-immunoprecipitation was performed essentially as described before. In brief, 24 h after transfection, the cells were collected and lysed on ice for 30 min in co-IP buffer (50 mM Tris/HCl pH 7.4, 150 mM NaCl, 1 mM EDTA, 0.5% NP40) with protease inhibitor mixture, and the lysates were cleared by centrifugation. The resulting supernatants were incubated with indicated agarose or magnetic beads and rotated at 4° C. for 3 h. The agarose was washed five times with co-IP buffer. As for the BFP-tagged Q103, the supernatants were incubated with rabbit anti-BFP antibodies and Protein A/G PLUS-Agarose according to the manufacturers' protocol. […]

In experiment [2] the target is T2, T7-LC3C (expressed in cells) (UniProt Q9BXW4 1-126).
T2 construct: Expressed from pCDNA3-T7-LC3C; not shown: T7 tag
Nature of the experiment: co-IP with T7-LC3C in HEK293T. The method, then:
(§1) The data are representative of three independent experiments. [0146] […] The data are representative of three independent experiments. [0147] […] The data are representative of three independent experiments. [0148] […] The interaction of the peptides with T7-GABARAP or T7-GABARAPL1 proteins was analyzed by in vitro pull-down. The data are representative of three independent experiments. [0149] […] The data are representative of three independent experiments. [0150] […] [0151] (K) Quantification of Q103-HTT-GFP area/DAPI area (mean±SEM) as shown in [0152] (J). 48 h represents IB accumulation stage and 72 h represents clearance stage. P values are indicated (two-tailed t test, >20 views from three independent experiments). [0153] […] The data are representative of three independent experiments. [0154] […] The data are representative of three independent experiments. [0155] […] The data are representative of three independent experiments.
(§2) Co-immunoprecipitation was performed essentially as described before. In brief, 24 h after transfection, the cells were collected and lysed on ice for 30 min in co-IP buffer (50 mM Tris/HCl pH 7.4, 150 mM NaCl, 1 mM EDTA, 0.5% NP40) with protease inhibitor mixture, and the lysates were cleared by centrifugation. The resulting supernatants were incubated with indicated agarose or magnetic beads and rotated at 4° C. for 3 h. The agarose was washed five times with co-IP buffer.

Experiment [3] concerns the target T3, His-T7-LC3C (purified protein) (UniProt Q9BXW4 1-147).
T3 construct: Purified on Ni sepharose; used in peptide and protein pull-downs; also called T7-LC3C protein; purified LC3C; not shown: His and T7 tags
Nature of the experiment: in vitro pull-down of purified proteins, immunoblot. (In general: In western blotting, separated proteins are transferred to a membrane and probed.)

Experiment [4] addresses B1. Nature of the experiment: co-IP of HA-CCT2 with T7-GABARAP in HEK293T. The method, then:
as §1, §2

For experiment [5], the target named is T1, His-mRuby2-CCT2 (purified). Nature of the experiment: recruitment of 4 uM mRuby2-CCT2 to FUS P525L granules in vitro, imaging. The source says:
[0179] […] [0180] […] [0181] […] [0182] […] [0184] […] [0185] […] [0186]

In experiment [6] the target is T3, His-T7-LC3C (purified protein). Kind of experiment: peptide pull-down, immunoblot. The source says: The data are representative of three independent experiments. […] The cells were permeabilized with digitonin before fixation. [0136] (G) Quantification of LC3 around Q103-HTT IB (mean±SEM) as shown in (F). […] [0137] […] The cells were permeabilized with digitonin before immunoblot analysis. LE, long exposure; SE, short exposure. [0138] (I) Quantification of normalized Q103-HTT (mean±SEM) in (H). […] [0139] […] The VLIR motif VIL is highlighted in red. [0140] […] The data are representative of three independent experiments. [0141] […] The cells were permeabilized with digitonin before fixation. [0142] (M) Quantification of LC3 around IBs (mean±SEM) as shown in (L). […] [0143] […] [0144] (O) Quantification of normalized Q103-HTT (mean±SEM) in (N).
After washing, 2×SDS loading buffer was added to the beads, and immunoblot was performed as described previously.

T3 sequence (Q9BXW4 whole entry): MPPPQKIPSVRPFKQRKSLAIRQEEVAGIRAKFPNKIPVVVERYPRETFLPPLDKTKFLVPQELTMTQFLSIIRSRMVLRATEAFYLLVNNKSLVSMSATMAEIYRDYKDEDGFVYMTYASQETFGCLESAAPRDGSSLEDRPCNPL
T2 sequence (Q9BXW4 1-126): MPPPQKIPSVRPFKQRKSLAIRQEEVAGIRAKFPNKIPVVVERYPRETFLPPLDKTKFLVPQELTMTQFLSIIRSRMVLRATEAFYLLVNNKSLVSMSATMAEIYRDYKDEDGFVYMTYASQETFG

Take B1: in experiment [1], the binding result was “binds”.
For B2, in experiment [2], the binding result is on record as “no binding”.
Still for that read-out and setting: to B3 belongs “no binding”.
For the molecule B4, the binding result in experiment [3] is “no binding”.
Consider B5, for which the binding result in experiment [4] is given as “binds”.
Take B6: in experiment [5], the binding result is reported as “binds”.
For the molecule B7, the binding result in experiment [6] is “no binding”.
